Reference: paper PMC3711453
Where two headings read alike, the source gives them in different places.

T1: His6-MTSF1 (lacking first 146 aa) (Arabidopsis thaliana? (Arabidopsis, …, UniProt Q9M9X9 147-987))
T1 sequence: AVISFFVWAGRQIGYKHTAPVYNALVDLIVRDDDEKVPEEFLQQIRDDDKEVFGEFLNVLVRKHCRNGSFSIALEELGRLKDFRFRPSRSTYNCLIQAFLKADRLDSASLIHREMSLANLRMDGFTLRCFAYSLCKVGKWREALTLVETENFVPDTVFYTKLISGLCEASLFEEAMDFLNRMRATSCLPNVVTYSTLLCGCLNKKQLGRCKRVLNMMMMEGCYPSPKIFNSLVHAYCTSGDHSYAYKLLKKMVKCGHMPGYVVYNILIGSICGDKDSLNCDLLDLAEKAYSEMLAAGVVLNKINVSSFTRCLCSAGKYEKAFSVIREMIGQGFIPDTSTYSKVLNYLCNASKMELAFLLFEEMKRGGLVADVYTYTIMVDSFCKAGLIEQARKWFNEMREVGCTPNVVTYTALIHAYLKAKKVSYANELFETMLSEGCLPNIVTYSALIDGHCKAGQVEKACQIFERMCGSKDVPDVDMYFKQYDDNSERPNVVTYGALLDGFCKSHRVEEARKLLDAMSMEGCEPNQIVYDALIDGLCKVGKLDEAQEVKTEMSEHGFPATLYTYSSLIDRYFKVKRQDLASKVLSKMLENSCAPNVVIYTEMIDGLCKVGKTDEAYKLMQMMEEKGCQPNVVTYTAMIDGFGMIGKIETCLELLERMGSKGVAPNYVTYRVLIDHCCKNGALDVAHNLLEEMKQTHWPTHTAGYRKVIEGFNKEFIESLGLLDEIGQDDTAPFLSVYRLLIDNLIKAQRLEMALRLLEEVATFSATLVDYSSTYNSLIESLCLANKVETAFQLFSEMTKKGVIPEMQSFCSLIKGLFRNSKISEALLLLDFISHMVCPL


Experiments:
[1] = biological target: T1, His6-MTSF1 (lacking first 146 aa); assay: EMSA
[2] = biological target: T1, His6-MTSF1 (lacking first 146 aa); assay: EMSA; remark: listed apart in the source

Binder | binding result [1] | binding result [2]
GAGGAAUCAGCAAAGAAAAGAAAAACGGGU (ssRNA) [3'ND4-1 (entire nad4 3' UTR, 30 nt)] | binds | –
CAAAGAAAAGAAAAACGGGU (ssRNA) [3'ND4-3 (last 20 nt of nad4 3' UTR)] | – | binds
AACAUGGCAAAUUUCAUUGA (ssRNA) [3'ND4-2 (last 20 nt of nad4 coding sequence)] | no binding | –
CAACAUCUUAAUGUGUAUUUGAGGAUAUUU (ssRNA) [3'ND4-4 (30 nt downstream of nad4 mRNA 3' end)] | no binding | –
